Source: PMC8689207

Target: far-red light-acclimated photosystem I (FRL-PSI) complex of Synechococcus sp. PCC 7335, trimeric (Synechococcus sp. PCC 7335 (endogenous in Synechococcus 7335 cells))
Assay: cryo-EM structure; trimeric FRL-PSI isolated whole from FRL-grown Synechococcus 7335 cells (1% β-DM, two sucrose gradients, PIB: 50 mM MES pH 6.5, 15 mM CaCl2, 10 mM MgCl2); Fd not added; ~3 mg Chl/ml, plunge-frozen at 4 °C; C3 symmetry, 2.91 Å

occupancy [%] | stoichiometry N | Substance
10 |  | ferredoxin PetF1 (soluble [2Fe-2S] ferredoxin) of Synechococcus sp. PCC 7335 (natural protein)
 | 3 | far-red light-acclimated photosystem I (FRL-PSI) complex of Synechococcus sp. PCC 7335, trimeric
